In one test the target is T1, Mouse CD200R1-His (mouse, UniProt Q9ES57 26-238, limits assumed).
T1 sequence (looked up): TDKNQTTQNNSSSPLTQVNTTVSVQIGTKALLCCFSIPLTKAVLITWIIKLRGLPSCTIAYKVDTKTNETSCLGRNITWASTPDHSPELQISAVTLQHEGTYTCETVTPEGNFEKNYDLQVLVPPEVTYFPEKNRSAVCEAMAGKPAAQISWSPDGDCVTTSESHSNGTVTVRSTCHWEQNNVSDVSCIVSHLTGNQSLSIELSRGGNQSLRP
As to the kind of experiment: BLI (Octet), antibody captured on anti-human Fc sensor. Here is the method: (§1) To determine the binding affinities of the anti-CD200R1 antibodies to CD200R1a proteins of various species (mouse, human, Cynomolgus macaques), bio-layer interferometry (BLI) assays were carried out using an Octet® RED96e instrument. Antibodies were produced as described in Example 3.4 and diluted to 5 μg/mL using freshly prepared 1× kinetic buffer (10× kinetic buffer (Catalog #18-1105, ForteBio) was diluted with PBS(Catalog #E607016-0500, BBI Life Sciences)) and were captured on the surface of anti-human Fc (AHC) Octet biosensors (Catalog #18-5060, ForteBio) to reach capture levels between 0.9-1.2 nm. The biosensors having the captured anti-CD200R1 antibodies were then dipped in wells containing 2-fold serial dilutions of CD200R1a proteins to detect association signals, followed by dissociation steps in wells containing 1× kinetic buffer. The sensorgrams were recorded and the reference signals were subtracted before curve fitting using ForteBio Data Analysis 11.0 software. Association rates (kₒₙ) and dissociation rates (koff) were calculated using a simple one-to-one Langmuir binding model. The equilibrium dissociation constant (KD) was calculated as the ratio of koff/kₒₙ.

In another test the target is T2, Cyno CD200R1a-His (Cynomolgus macaques, UniProt Q8TD46 25-265 (human entry)).
T2 construct: Soluble protein used in BLI; also called Cynomolgus macaques CD200R1a recombinant protein; not shown: His tag
T2 chain: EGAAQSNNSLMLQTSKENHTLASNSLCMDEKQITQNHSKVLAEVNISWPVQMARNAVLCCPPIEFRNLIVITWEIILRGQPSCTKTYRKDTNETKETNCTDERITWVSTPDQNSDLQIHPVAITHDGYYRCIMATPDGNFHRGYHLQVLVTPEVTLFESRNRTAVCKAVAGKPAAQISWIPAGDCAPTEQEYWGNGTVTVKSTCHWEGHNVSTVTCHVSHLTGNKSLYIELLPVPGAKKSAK
Put plainly: BLI (Octet), antibody captured on anti-human Fc sensor, soluble CD200R1a as analyte, 1:1 fit. As for the experimental part: as §1

For test [1], the target named is T3, human CD200R1a protein (soluble recombinant) (human, UniProt Q8TD46 29-265).
T3 construct: Soluble protein used in BLI; also called human CD200R1 isoform a; not shown: His tag implied by capture on anti-Penta-HIS biosensors
T3 sequence: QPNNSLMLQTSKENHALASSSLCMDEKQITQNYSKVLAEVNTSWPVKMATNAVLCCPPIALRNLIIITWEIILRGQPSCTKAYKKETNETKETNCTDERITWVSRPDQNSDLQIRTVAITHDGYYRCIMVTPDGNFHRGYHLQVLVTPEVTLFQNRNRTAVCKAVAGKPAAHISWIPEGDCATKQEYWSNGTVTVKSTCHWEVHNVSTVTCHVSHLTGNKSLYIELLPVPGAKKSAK
Described as above. Here is the method: as §1

Test [2] addresses T4, human CD200R1 isoform a on CHOK1 cells (CHOK1/hCD200R1a) (human, UniProt Q8TD46 25-348).
T4 construct: also called CHOK1/CD200R1a
T4 sequence: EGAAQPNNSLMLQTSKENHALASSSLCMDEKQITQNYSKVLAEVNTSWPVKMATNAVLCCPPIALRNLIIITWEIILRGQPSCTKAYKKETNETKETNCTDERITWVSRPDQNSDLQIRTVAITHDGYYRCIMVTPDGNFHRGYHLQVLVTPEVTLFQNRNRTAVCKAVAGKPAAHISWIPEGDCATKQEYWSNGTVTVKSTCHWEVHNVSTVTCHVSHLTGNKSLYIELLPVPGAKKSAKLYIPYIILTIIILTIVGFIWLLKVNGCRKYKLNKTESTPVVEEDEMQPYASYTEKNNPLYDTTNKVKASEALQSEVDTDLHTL
Put plainly: flow cytometry blocking assay: antibody titrated against biotin-labelled human CD200 binding to CHOK1/hCD200R1a cells. Here is the method:
To study the activity of human anti-CD200R1 antibodies in blocking the binding of human CD200 to its receptor CD200R1a in vitro, CHOK1/hCD200R1a was used to perform cell-level human CD200/human CD200R1a binding and blocking experiments.
In brief, CHOK1/hCD200R1a cells were digested and resuspended in 2% BSA in PBS. […] The cells were placed at 4° C. and incubated for 1 hour in the dark. […] 100 μL/well of pre-cooled PBS containing 2% BSA was added to rinse the cells twice, centrifugation was performed at 500 g, 4° C. for 5 minutes, and the supernatant was discarded. Fluorescent secondary antibody (PE Streptavidin, BD, Cat #: 554061, 1:200) was added at 100 μL/well, and incubation was performed at 4° C. for 30 minutes in the dark. The cells were washed twice with 200 μL/well of pre-cooled PBS, and were centrifuged at 500 g, 4° C. for 5 minutes, and the supernatant was discarded. Finally, 200 μL/well of pre-cooled PBS was used to resuspend the cells, and the fluorescence signal values were read using ACEA Novocyte 3000 flow cytometer. IC50 values were calculated.

B1: PR005509 (antibody, human IgG1, kappa, L234A L235A, V domains shown)
VH: QVQLVESGGGVVQPGRSLRLSCAASGFTFSSYGFHWVRQAPGKGLEWLGLIWSDGSNKYYADSVKGRFTISRDNSKNTLYLQMNSLRAEDTAVYYCARDRIVGAGFDYWGQGTLVTVSS
VL: not shown
As to B1, in the test with Mouse CD200R1-His, the binding result is “no binding”. In addition, in the test with Cyno CD200R1a-His, binding was put at a Kd of 146 nM, the koff came to 0.0275 s⁻¹ and the kon came to 189000 M⁻¹ s⁻¹. In test [1], the Kd was found to be 7.74 nM, the koff turned out to be 0.000511 s⁻¹ and the on-rate (kon) was 66100 M⁻¹ s⁻¹. In test [2], the “Blocking (Max %)” value amounted to 102% and the IC50 worked out at 0.485 nM.

B2: PR005474 (antibody, human IgG1, kappa, L234A L235A, V domains shown)
VH: QVQLVESGGGVVQPGRSLRLSCAASAFTFSSYGMHWVRQAPGKGLEWVALIWNDGSNKFYADSVKGRFTISRDNSKNTLFLQMNSLRAEDTAVYYCARDRILGAGFDYWGQGTLVTVSS
VL: not shown
Take B2: in the test with Mouse CD200R1-His, the binding result is on record as “no binding”. In the test with Cyno CD200R1a-His, this molecule yielded a Kd of 147 nM, a koff of 0.0287 s⁻¹ and a kon of 196000 M⁻¹ s⁻¹. Besides, in test [1], the equilibrium dissociation constant (Kd) was 16.6 nM, the off-rate constant (koff) is 0.00101 s⁻¹ and the kon came out at 60700 M⁻¹ s⁻¹. Moreover, in test [2], the “Blocking (Max %)” value stood at 101% and the half-inhibitory concentration (IC50) was 0.309 nM.

B3: PR007973 (antibody, human IgG1, kappa, V domains shown)
VH: QVQLVESGGGVVQPGRSLRLSCAASGFTFSSYGFHWVRQAPGKGLEWLGIIWSDASNKYYADSVKGRFTISRDNSKNTLYLQMNSLRAEDTAVYYCARDRIVGEGFDYWGQGTLVTVSS
VL: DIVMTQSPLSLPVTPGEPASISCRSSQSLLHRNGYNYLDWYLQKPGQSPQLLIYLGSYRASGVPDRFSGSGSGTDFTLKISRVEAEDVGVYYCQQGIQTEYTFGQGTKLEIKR
notes: PTM variant of PR006839 (human IgG1)
Turning to B3, the binding result in the test with Mouse CD200R1-His was “no binding”. In the test with Cyno CD200R1a-His, this molecule registered a Kd of 10.2 nM, a koff of 0.000151 s⁻¹ and an on-rate constant (kon) of 14900 M⁻¹ s⁻¹. In test [1], the Kd was found to be 1.06 nM, the koff is 5.97e-05 s⁻¹ and the kon amounted to 56200 M⁻¹ s⁻¹.

B4: PR002906 (antibody, V domains shown)
VH: QVQLQESGPGLVKPSETLSLTCTVSGYTITSGYDWSWIRQPPGKGLEWIGYINYGGSTNYKPSLGSRVTISVDTSKNQFSLKLSSVTAADTAVYYCARYNEYKSYIYDWYFDFWGQGTLVTVSS
VL: DIQMTQSPSSLSASVGDRVTITCKASKNIRSYLAWYQQKPGKAPKLLIYSGSTLHSGVPSRFSGSGSGTDFTLTISSLQPEDFATYYCQQHHEYPLTFGQGTKVEIKR
notes: also called recombinant IgG1 antibody of huDX182
For B4, in test [1], the Kd came out at 39.3 nM, the off-rate constant (koff) was found to be 0.00341 s⁻¹ and the kon was found to be 86700 M⁻¹ s⁻¹. Moreover, in test [2], the “Blocking (Max %)” value amounted to 98.3% and the 50% inhibitory concentration (IC50) was 1.58 nM.

B5: PR006480 (antibody, human IgG1, kappa, L234A L235A)
heavy: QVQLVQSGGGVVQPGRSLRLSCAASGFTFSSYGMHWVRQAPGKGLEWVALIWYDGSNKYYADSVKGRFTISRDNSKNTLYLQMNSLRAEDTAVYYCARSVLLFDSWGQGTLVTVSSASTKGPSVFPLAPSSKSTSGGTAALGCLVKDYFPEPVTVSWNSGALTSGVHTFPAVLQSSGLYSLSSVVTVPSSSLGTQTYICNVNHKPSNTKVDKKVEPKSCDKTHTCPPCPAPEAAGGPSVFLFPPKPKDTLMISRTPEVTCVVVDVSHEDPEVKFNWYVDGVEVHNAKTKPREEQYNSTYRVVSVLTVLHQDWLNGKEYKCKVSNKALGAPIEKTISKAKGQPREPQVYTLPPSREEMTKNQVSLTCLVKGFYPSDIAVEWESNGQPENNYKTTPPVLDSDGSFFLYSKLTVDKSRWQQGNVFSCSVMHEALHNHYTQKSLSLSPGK
light: DIQMTQSPPSLSASVGDRVTITCRASQSISSYLNWFQQKAGKAPKLLISATSNLQSGVPSRFSGSGSGTDFTLTISSLQPEDLATYYCQQSYSSPYTFGQGTKVEIKRTVAAPSVFIFPPSDEQLKSGTASVVCLLNNFYPREAKVQWKVDNALQSGNSQESVTEQDSKDSTYSLSSTLTLSKADYEKHKVYACEVTHQGLSSPVTKSFNRGEC
notes: also called PR6480
For B5, the binding result with Mouse CD200R1-His is on record as “no binding”. In the test with Cyno CD200R1a-His, this molecule displayed a dissociation constant (Kd) of 104 nM, a koff of 0.00713 s⁻¹ and a kon of 68500 M⁻¹ s⁻¹. For the same molecule, in test [1], the dissociation constant (Kd) stood at 14.3 nM, the koff came out at 0.000476 s⁻¹ and the kon was determined as 33300 M⁻¹ s⁻¹. Moreover, in test [2], the “Blocking (Max %)” value amounted to 63.3% and the IC50 worked out at 0.607 nM.

B6: PR007221 (antibody, human IgG1, kappa)
heavy: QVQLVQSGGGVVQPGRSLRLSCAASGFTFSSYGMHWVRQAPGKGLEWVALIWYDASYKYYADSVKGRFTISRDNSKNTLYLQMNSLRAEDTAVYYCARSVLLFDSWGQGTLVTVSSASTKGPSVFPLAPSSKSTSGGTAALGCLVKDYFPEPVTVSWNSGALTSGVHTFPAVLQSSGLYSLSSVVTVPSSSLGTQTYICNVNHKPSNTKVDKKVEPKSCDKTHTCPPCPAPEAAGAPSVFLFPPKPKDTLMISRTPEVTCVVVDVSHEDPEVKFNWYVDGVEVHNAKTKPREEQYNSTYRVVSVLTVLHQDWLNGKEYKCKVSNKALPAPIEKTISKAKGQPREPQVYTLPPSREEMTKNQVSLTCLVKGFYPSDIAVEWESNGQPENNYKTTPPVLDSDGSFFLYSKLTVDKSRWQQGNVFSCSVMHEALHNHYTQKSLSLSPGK
light: DIQLTQSPPSLSASVGDRVTITCRASQSISSYLNWFQQKAGKAPKLLISATSNLQSGVPSRFSGSGSGTDFTLTISSLQPEDLATYYCQQTLSSPYTFGQGTKVEIKRTVAAPSVFIFPPSDEQLKSGTASVVCLLNNFYPREAKVQWKVDNALQSGNSQESVTEQDSKDSTYSLSSTLTLSKADYEKHKVYACEVTHQGLSSPVTKSFNRGEC
notes: PTM variant of PR006895 (human IgG1)
In the case of B6, in the test with Mouse CD200R1-His, the binding result is “no binding”. In the test with Cyno CD200R1a-His, this molecule gave a dissociation constant Kd of 12.5 nM, a koff of 0.000776 s⁻¹ and an association rate constant (kon) of 62100 M⁻¹ s⁻¹. In test [1], the equilibrium dissociation constant (Kd) was 4.34 nM, the dissociation rate constant (koff) was found to be 0.000211 s⁻¹ and the kon was 48600 M⁻¹ s⁻¹.

B7: PR007223 (antibody, human IgG1, kappa)
heavy: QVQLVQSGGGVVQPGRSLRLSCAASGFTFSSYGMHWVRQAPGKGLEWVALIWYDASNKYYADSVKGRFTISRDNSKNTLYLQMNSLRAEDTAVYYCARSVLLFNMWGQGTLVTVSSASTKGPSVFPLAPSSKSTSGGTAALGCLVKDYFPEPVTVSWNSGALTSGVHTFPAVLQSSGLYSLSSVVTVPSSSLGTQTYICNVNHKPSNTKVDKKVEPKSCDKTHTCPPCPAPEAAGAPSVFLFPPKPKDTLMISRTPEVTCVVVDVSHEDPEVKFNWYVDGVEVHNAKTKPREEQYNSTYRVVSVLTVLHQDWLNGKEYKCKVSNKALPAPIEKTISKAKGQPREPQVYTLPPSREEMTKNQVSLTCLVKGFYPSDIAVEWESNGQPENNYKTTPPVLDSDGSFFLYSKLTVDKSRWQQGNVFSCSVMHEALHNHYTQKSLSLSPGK
light: DIQLTQSPPSLSASVGDRVTITCRASQSISSYLNWFQQKAGKAPKLLISATSNLQSGVPSRFSGSGSGTDFTLTISSLQPEDLATYYCQQTYSSPYTFGQGTKVEIKRTVAAPSVFIFPPSDEQLKSGTASVVCLLNNFYPREAKVQWKVDNALQSGNSQESVTEQDSKDSTYSLSSTLTLSKADYEKHKVYACEVTHQGLSSPVTKSFNRGEC
notes: as for B6
Regarding B7, the binding result with Mouse CD200R1-His is “no binding”. In the test with Cyno CD200R1a-His, this molecule registered an equilibrium dissociation constant (Kd) of 16.3 nM, a koff of 0.0014 s⁻¹ and an association rate constant (kon) of 86000 M⁻¹ s⁻¹. Further, in test [1], the dissociation constant Kd is 2.07 nM, the koff was 0.000133 s⁻¹ and the kon is 64200 M⁻¹ s⁻¹.

Source of the values: patent publication US20250313626A1 (HARBOUR BIOMED SHANGHAI, published 2025).
